According to paper PMC10366140:

Tested on: apRAD51C-CTD-1 WT (Alvinella pompejana)
Assay: fluorescence polarization
Settings: FP: 20 mM HEPES pH 8, 80 mM NaCl, 2.5 mM ATP, 2.5 mM MgCl2, 1 mM DTT, 0.1 mg/mL BSA, 10 nM DNA, 37 C 20 min, EMSA: 20 mM Tris pH 8.0, 150 mM KCl, 4 C 15 min

TTTTTTTTTTTTTTTTTTTT [poly-20dT] showed a Kd of 1250 nM.
